From the Human Domainome abundance scans (Beltran et al. 2025)
± gives the uncertainty stated by the source.

B1: DnaJ homolog subfamily C member 2, residues 451 to 503; numbered along this chain, Q99543 (parent)
chain: SKNWSEDDLQLLIKAVNLFPAGTNSRWEVIANYMNIHSSSGVKRTAKDVIGKA

Variants of: B1
Test: abundance fitness (aPCA) (normalised: wild type 0, dead -1); higher = more abundant; growth selection in yeast, the domain comes from the species named
Details: Homo sapiens
In the case of SKNWSEDDLQLLIKAPNLFPAGTNSRWEVIANYMNIHSSSGVKRTAKDVIGKA [V16P], the abundance fitness is reported as -1.04 ± 0.13. SKNWSEDDLQLLIKAGNLFPAGTNSRWEVIANYMNIHSSSGVKRTAKDVIGKA [V16G] showed an abundance fitness of -0.266 ± 0.055. SKNWSEDDLQLLIKADNLFPAGTNSRWEVIANYMNIHSSSGVKRTAKDVIGKA [V16D] gave an abundance fitness of -0.371 ± 0.094. With SKNWSEDDLQLLIKAHNLFPAGTNSRWEVIANYMNIHSSSGVKRTAKDVIGKA [V16H] the abundance fitness was -0.25 ± 0.1. With SKNWSEDDLQLLIKAWNLFPAGTNSRWEVIANYMNIHSSSGVKRTAKDVIGKA [V16W] the abundance fitness was -0.268 ± 0.069. In the case of SKNWSEDDLQLLIKAENLFPAGTNSRWEVIANYMNIHSSSGVKRTAKDVIGKA [V16E], the abundance fitness is reported as -0.042 ± 0.083. SKNWSEDDLQLLIKAMNLFPAGTNSRWEVIANYMNIHSSSGVKRTAKDVIGKA [V16M] showed an abundance fitness of 0.065 ± 0.071. Work on SKNWSEDDLQLLIKAYNLFPAGTNSRWEVIANYMNIHSSSGVKRTAKDVIGKA [V16Y] yielded an abundance fitness of -0.028 ± 0.11. SKNWSEDDLQLLIKALNLFPAGTNSRWEVIANYMNIHSSSGVKRTAKDVIGKA [V16L] showed an abundance fitness of -0.067 ± 0.061. SKNWSEDDLQLLIKACNLFPAGTNSRWEVIANYMNIHSSSGVKRTAKDVIGKA [V16C] showed an abundance fitness of -0.186 ± 0.081. In the case of SKNWSEDDLQLLIKAKNLFPAGTNSRWEVIANYMNIHSSSGVKRTAKDVIGKA [V16K], the abundance fitness is reported as 0.18 ± 0.071. SKNWSEDDLQLLIKAQNLFPAGTNSRWEVIANYMNIHSSSGVKRTAKDVIGKA [V16Q] gave an abundance fitness of 0.168 ± 0.098. Work on SKNWSEDDLQLLIKANNLFPAGTNSRWEVIANYMNIHSSSGVKRTAKDVIGKA [V16N] yielded an abundance fitness of -0.071 ± 0.096. Variant SKNWSEDDLQLLIKAINLFPAGTNSRWEVIANYMNIHSSSGVKRTAKDVIGKA [V16I] has an abundance fitness of 0.08 ± 0.08. SKNWSEDDLQLLIKYVNLFPAGTNSRWEVIANYMNIHSSSGVKRTAKDVIGKA [A15Y] gave an abundance fitness of -0.688 ± 0.14. For SKNWSEDDLQLLIKRVNLFPAGTNSRWEVIANYMNIHSSSGVKRTAKDVIGKA [A15R], the abundance fitness was -0.994 ± 0.08. For SKNWSEDDLQLLIKHVNLFPAGTNSRWEVIANYMNIHSSSGVKRTAKDVIGKA [A15H], the abundance fitness was -0.754 ± 0.2. With SKNWSEDDLQLLIKLVNLFPAGTNSRWEVIANYMNIHSSSGVKRTAKDVIGKA [A15L] the abundance fitness was -0.61 ± 0.071. SKNWSEDDLQLLIKIVNLFPAGTNSRWEVIANYMNIHSSSGVKRTAKDVIGKA [A15I] gave an abundance fitness of -0.982 ± 0.17. In the case of SKNWSEDDLQLLIKNVNLFPAGTNSRWEVIANYMNIHSSSGVKRTAKDVIGKA [A15N], the abundance fitness is reported as -0.984 ± 0.13. SKNWSEDDLQLLIKPVNLFPAGTNSRWEVIANYMNIHSSSGVKRTAKDVIGKA [A15P] gave an abundance fitness of -0.724 ± 0.1. Variant SKNWSEDDLQLLIKFVNLFPAGTNSRWEVIANYMNIHSSSGVKRTAKDVIGKA [A15F] has an abundance fitness of -0.847 ± 0.12. SKNWSEDDLQLLIKDVNLFPAGTNSRWEVIANYMNIHSSSGVKRTAKDVIGKA [A15D] showed an abundance fitness of -0.777 ± 0.12. Work on SKNWSEDDLQLLIKVVNLFPAGTNSRWEVIANYMNIHSSSGVKRTAKDVIGKA [A15V] yielded an abundance fitness of -0.511 ± 0.072. For SKNWSEDDLQLLIKGVNLFPAGTNSRWEVIANYMNIHSSSGVKRTAKDVIGKA [A15G], the abundance fitness was -0.182 ± 0.058. SKNWSEDDLQLLIKWVNLFPAGTNSRWEVIANYMNIHSSSGVKRTAKDVIGKA [A15W] showed an abundance fitness of -0.682 ± 0.1. Variant SKNWSEDDLQLLIKEVNLFPAGTNSRWEVIANYMNIHSSSGVKRTAKDVIGKA [A15E] has an abundance fitness of -0.965 ± 0.11. For SKNWSEDDLQLLIKCVNLFPAGTNSRWEVIANYMNIHSSSGVKRTAKDVIGKA [A15C], the abundance fitness was -0.279 ± 0.1. SKNWSEDDLQLLIKTVNLFPAGTNSRWEVIANYMNIHSSSGVKRTAKDVIGKA [A15T] gave an abundance fitness of -0.519 ± 0.093. Variant SKNWSEDDLQLLIKMVNLFPAGTNSRWEVIANYMNIHSSSGVKRTAKDVIGKA [A15M] has an abundance fitness of -0.83 ± 0.13. SKNWSEDDLQLLIKQVNLFPAGTNSRWEVIANYMNIHSSSGVKRTAKDVIGKA [A15Q] gave an abundance fitness of -1.03 ± 0.12. SKNWSEDDLQLLIKSVNLFPAGTNSRWEVIANYMNIHSSSGVKRTAKDVIGKA [A15S] showed an abundance fitness of -0.214 ± 0.072. With SKNWSEDDLQLLIPAVNLFPAGTNSRWEVIANYMNIHSSSGVKRTAKDVIGKA [K14P] the abundance fitness was -0.971 ± 0.099. Work on SKNWSEDDLQLLIEAVNLFPAGTNSRWEVIANYMNIHSSSGVKRTAKDVIGKA [K14E] yielded an abundance fitness of -0.096 ± 0.066. Work on SKNWSEDDLQLLIMAVNLFPAGTNSRWEVIANYMNIHSSSGVKRTAKDVIGKA [K14M] yielded an abundance fitness of -0.226 ± 0.084. With SKNWSEDDLQLLIDAVNLFPAGTNSRWEVIANYMNIHSSSGVKRTAKDVIGKA [K14D] the abundance fitness was -0.054 ± 0.084. Variant SKNWSEDDLQLLIYAVNLFPAGTNSRWEVIANYMNIHSSSGVKRTAKDVIGKA [K14Y] has an abundance fitness of -0.207 ± 0.083. In the case of SKNWSEDDLQLLIWAVNLFPAGTNSRWEVIANYMNIHSSSGVKRTAKDVIGKA [K14W], the abundance fitness is reported as -0.602 ± 0.079. For SKNWSEDDLQLLINAVNLFPAGTNSRWEVIANYMNIHSSSGVKRTAKDVIGKA [K14N], the abundance fitness was -0.274 ± 0.095. Work on SKNWSEDDLQLLISAVNLFPAGTNSRWEVIANYMNIHSSSGVKRTAKDVIGKA [K14S] yielded an abundance fitness of -0.225 ± 0.062. With SKNWSEDDLQLLILAVNLFPAGTNSRWEVIANYMNIHSSSGVKRTAKDVIGKA [K14L] the abundance fitness was -0.317 ± 0.055. Work on SKNWSEDDLQLLIAAVNLFPAGTNSRWEVIANYMNIHSSSGVKRTAKDVIGKA [K14A] yielded an abundance fitness of -0.026 ± 0.065. With SKNWSEDDLQLLIGAVNLFPAGTNSRWEVIANYMNIHSSSGVKRTAKDVIGKA [K14G] the abundance fitness was -0.243 ± 0.055. In the case of SKNWSEDDLQLLIQAVNLFPAGTNSRWEVIANYMNIHSSSGVKRTAKDVIGKA [K14Q], the abundance fitness is reported as -0.308 ± 0.071. For SKNWSEDDLQLLIRAVNLFPAGTNSRWEVIANYMNIHSSSGVKRTAKDVIGKA [K14R], the abundance fitness was -0.088 ± 0.053. SKNWSEDDLQLLIHAVNLFPAGTNSRWEVIANYMNIHSSSGVKRTAKDVIGKA [K14H] showed an abundance fitness of -0.05 ± 0.098. With SKNWSEDDLQLLICAVNLFPAGTNSRWEVIANYMNIHSSSGVKRTAKDVIGKA [K14C] the abundance fitness was -0.274 ± 0.07. In the case of SKNWSEDDLQLLIVAVNLFPAGTNSRWEVIANYMNIHSSSGVKRTAKDVIGKA [K14V], the abundance fitness is reported as -0.196 ± 0.059. SKNWSEDDLQLLIIAVNLFPAGTNSRWEVIANYMNIHSSSGVKRTAKDVIGKA [K14I] gave an abundance fitness of -0.296 ± 0.094. SKNWSEDDLQLLIFAVNLFPAGTNSRWEVIANYMNIHSSSGVKRTAKDVIGKA [K14F] gave an abundance fitness of -0.006 ± 0.084.
